Data published in patent publication US20220177604A1.
Read-outs that look alike come from different tables or passages of the source.

Tests used:
[1] = target: biotinylated human FcRn (human) (UniProt P55899); experiment: FcRn binding ELISA at pH 6: biotinylated human FcRn on neutravidin, anti-human IgG-Fc-HRP
[2] = target: biotinylated human FcRn (human) (UniProt P55899); experiment: FcRn binding ELISA at pH 7: biotinylated human FcRn on neutravidin, anti-human IgG-Fc-HRP
[3] = target: biotinylated human FcRn (human) (UniProt P55899); experiment: FcRn binding ELISA at pH 6: biotinylated human FcRn on neutravidin, anti-human IgG-Fc-HRP; remark: listed apart in the source
[4] = target: biotinylated human FcRn (human) (UniProt P55899); experiment: FcRn binding ELISA at pH 7: biotinylated human FcRn on neutravidin, anti-human IgG-Fc-HRP; remark: listed apart in the source
[5] = target: biotinylated human FcRn (human) (UniProt P55899); experiment: competition ELISA at pH 6: biotinylated human FcRn on neutravidin, competitor recombinant hIgG3 (m8), bound IgG3 detected
[6] = target: biotinylated human FcRn (human) (UniProt P55899); experiment: as above; remark: listed apart in the source
[7] = target: biotinylated human FcRn (human) (UniProt P55899); experiment: as above; remark: listed apart in the source
[8] = target: human IgE pre-bound on human basophils (human) (UniProt P01854); experiment: cell-based or functional assay

Chain of biotinylated human FcRn (human) (P55899 24-297 limits assumed, chain 1 of 2): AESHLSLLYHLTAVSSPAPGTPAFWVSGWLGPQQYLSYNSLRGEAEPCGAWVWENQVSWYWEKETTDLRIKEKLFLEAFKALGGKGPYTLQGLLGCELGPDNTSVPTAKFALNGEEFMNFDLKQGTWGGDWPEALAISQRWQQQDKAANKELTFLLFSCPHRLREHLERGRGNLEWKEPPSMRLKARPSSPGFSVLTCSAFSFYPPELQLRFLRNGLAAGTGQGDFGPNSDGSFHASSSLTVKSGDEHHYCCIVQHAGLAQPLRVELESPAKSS
Chain of biotinylated human FcRn (human) (chain, as listed by the source limits assumed, chain 2 of 2): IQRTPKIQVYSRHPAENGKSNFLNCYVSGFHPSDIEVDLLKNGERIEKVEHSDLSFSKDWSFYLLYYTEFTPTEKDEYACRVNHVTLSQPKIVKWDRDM

With Efgartigimod as the substance, how does the EC50 (read off the curve) [1] read?
Its EC50 (read off the curve) is 0.05 nM.

And the EC50 (read off the curve) [2]?
Its EC50 (read off the curve) is 0.02 nM.

What about the EC50 (read off the curve) [3] of the same substance?
Its EC50 (read off the curve) is 0.06 nM.

And the EC50 (read off the curve) [4]?
The EC50 (read off the curve) was 0.09 nM.

And the IC50 (read off the curve) [5]?
Its IC50 (read off the curve) is 0.9 nM.

And the IC50 (read off the curve) [6]?
Its IC50 (read off the curve) is 0.7 nM.

And the IC50 (read off the curve) [7]?
The IC50 (read off the curve) was 0.6 nM.

Irrelevant antibody was tested. Which % of activated basophils (CCR3+CD63+) [8] did it give?
Its % of activated basophils (CCR3+CD63+) is 3%.
